Measurements as given in the supplement of paper PMC7125110.
± gives the standard error. For part of these data: Variants at the floor of the assay were thinned out.

B1: glmS ribozyme (parent)
chain: AUAAAAGCGCCAGAACUACAGAAAUGUAGUUGACGAGGAGGAGGUUUAUCGAAUUUUCGGCGGAUGCCUCCAAA

Assays:
Conditions in all cases: with glucosamine-6-phosphate
glucosamine-6-phosphate [1] = variants of: B1; assay: kcat; higher = faster cleavage; RNA array
Summary of the method: (§1)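 Barcoded ribozyme variants, transcribed in situ by E. coli RNA polymerase on sequenced MiSeq chips, were followed via a hybridised Cy3 probe at 37 °C. Glucosamine-6-phosphate ranged from 40 μM to 10 mM in HEPES/KCl/Mg(OAc)2 buffer. kobs came from decay fits to per-tile medians, and kcat and KM from weighted Michaelis–Menten fits.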

glucosamine-6-phosphate [2] = variants of: B1; assay: KM; higher = weaker cofactor use; RNA array
Summary of the method: as §1

glucosamine-6-phosphate [3] = variants of: B1; assay: self-cleavage kobs at 160 uM GlcN6P; higher = faster cleavage; RNA array
Summary of the method: as §1

glucosamine-6-phosphate [4] = variants of: B1; assay: self-cleavage kobs at 10000 uM GlcN6P; higher = faster cleavage; RNA array
Summary of the method: as §1

glucosamine-6-phosphate [5] = variants of: B1; assay: self-cleavage kobs at 40 uM GlcN6P; higher = faster cleavage; RNA array
Summary of the method: as §1

glucosamine-6-phosphate [6] = variants of: B1; assay: self-cleavage kobs at 640 uM GlcN6P; higher = faster cleavage; RNA array
Summary of the method: as §1

glucosamine-6-phosphate [7] = variants of: B1; assay: self-cleavage kobs at 2500 uM GlcN6P; higher = faster cleavage; RNA array
Summary of the method: as §1

| Variant | kcat (glucosamine-6-phosphate [1]) [s⁻¹] | KM (glucosamine-6-phosphate [2]) [µM] | self-cleavage kobs at 160 uM GlcN6P (glucosamine-6-phosphate [3]) [s⁻¹] | self-cleavage kobs at 10000 uM GlcN6P (glucosamine-6-phosphate [4]) [s⁻¹] | self-cleavage kobs at 40 uM GlcN6P (glucosamine-6-phosphate [5]) [s⁻¹] | self-cleavage kobs at 640 uM GlcN6P (glucosamine-6-phosphate [6]) [s⁻¹] | self-cleavage kobs at 2500 uM GlcN6P (glucosamine-6-phosphate [7]) [s⁻¹] |
| --- | --- | --- | --- | --- | --- | --- | --- |
| G32A U57A | 3.77e-05 ± 3.1e-06 | 3000 ± 970 | < 1e-05 | 2.89e-05 ± 9.1e-06 |  |  |  |
| U31G C67U | 0.00291 ± 0.00094 | 1040 ± 460 | 0.000329 ± 6.4e-05 | 0.00391 ± 0.00047 | 0.000124 ± 9.4e-06 | 0.00082 ± 0.00012 | 0.00179 ± 0.00027 |
| G32U U47A | 0.000688 ± 0.00026 |  | 5.78e-05 ± 1.8e-05 | 0.000493 ± 0.00011 |  | 8.3e-05 ± 2e-05 | 0.000375 ± 0.00014 |
| U46G A53G | 0.00499 ± 0.0025 |  | 0.000482 ± 0.00011 | 0.00811 ± 0.0028 | 0.000271 ± 7.8e-05 | 0.00165 ± 0.00049 | 0.00267 ± 0.00089 |
| A39C G59A | < 1e-05 |  | < 1e-05 |  | < 1e-05 | < 1e-05 |  |
| U31A A42U | 0.000111 ± 8.8e-06 | 3380 ± 670 |  | 8.19e-05 ± 1.4e-05 |  |  | 5.06e-05 ± 1.3e-05 |
| U57A C68U | 0.00017 ± 1.9e-05 | 2500 ± 560 |  | 0.000143 ± 2.2e-05 |  | 3.78e-05 ± 8.1e-06 | 7.94e-05 ± 1e-05 |
| A48U U56G | 0.000239 ± 3.7e-06 | 1590 ± 58 |  | 0.000206 ± 3.9e-05 |  | 6.91e-05 ± 2e-05 |  |
| A6U G32U C50G | 6.32e-05 ± 1.6e-05 |  | 7.94e-05 ± 1.8e-05 |  |  |  | 6.04e-05 ± 1.5e-05 |
| U46A C61U | < 1e-05 |  | < 1e-05 |  |  | < 1e-05 | < 1e-05 |
| C16G U65G | 0.00228 ± 0.0011 |  | 6.11e-05 ± 1.6e-05 | 0.00143 ± 0.00036 |  | 0.000149 ± 6.2e-05 | 0.000455 ± 0.00013 |
| A12C C71U | 0.0215 ± 0.0089 |  | 0.00112 ± 0.00015 | 0.0164 ± 0.0023 | 0.000587 ± 7e-05 | 0.00448 ± 0.00062 | 0.0206 ± 0.0035 |
| U47A U56C | 0.00368 ± 0.00095 | 3940 ± 1500 | 0.000111 ± 2.1e-05 | 0.00257 ± 0.00031 |  | 0.000703 ± 8.8e-05 | 0.00144 ± 0.00021 |
| A6C A15C | 3.27e-05 ± 1.8e-06 |  |  |  |  |  |  |
| A33U G41A U54G | 3.66e-05 ± 1.4e-06 | 2720 ± 360 |  | 2.88e-05 ± 1.2e-05 |  |  |  |
| A14U U69G | 3.85e-05 ± 7.5e-06 |  | 4.67e-05 ± 1.3e-05 | 3.9e-05 ± 8.1e-06 |  |  | 3.53e-05 ± 6.6e-06 |
| C10U U47A | 2.05e-05 ± 1.2e-06 | 300 ± 150 | < 1e-05 |  | < 1e-05 |  |  |

| Variant | kcat (glucosamine-6-phosphate [1]) [s⁻¹] | KM (glucosamine-6-phosphate [2]) [µM] | self-cleavage kobs at 160 uM GlcN6P (glucosamine-6-phosphate [3]) [s⁻¹] | self-cleavage kobs at 10000 uM GlcN6P (glucosamine-6-phosphate [4]) [s⁻¹] | self-cleavage kobs at 40 uM GlcN6P (glucosamine-6-phosphate [5]) [s⁻¹] | self-cleavage kobs at 640 uM GlcN6P (glucosamine-6-phosphate [6]) [s⁻¹] | self-cleavage kobs at 2500 uM GlcN6P (glucosamine-6-phosphate [7]) [s⁻¹] |
| --- | --- | --- | --- | --- | --- | --- | --- |
| A39C U46C U56C | 0.000367 ± 3.7e-05 | 2880 ± 510 |  | 0.000277 ± 5.9e-05 |  | 6.45e-05 ± 1.5e-05 | 0.000196 ± 5.6e-05 |
| A33C G66A | 0.000291 ± 4.1e-05 | 2470 ± 580 |  | 0.000257 ± 4.6e-05 |  | 6.35e-05 ± 9.2e-06 | 0.00013 ± 2.3e-05 |
| A33U C50U G59U | 1.02e-05 ± 3e-06 |  |  |  |  |  |  |
| C16A G38U | < 1e-05 |  |  |  |  |  | < 1e-05 |
| A12U G44A | 0.00153 ± 0.00047 | 2200 ± 960 | 8.78e-05 ± 1.3e-05 | 0.000973 ± 0.0002 |  | 0.000437 ± 5.9e-05 | 0.00103 ± 0.00013 |
| A14C A15G G40U | 0.000605 ± 0.0002 | 5380 ± 2700 |  | 0.000428 ± 7.3e-05 |  | 8.18e-05 ± 1.4e-05 | 0.000171 ± 2.4e-05 |
| U31G U56A | 0.00739 ± 0.00043 | 4370 ± 320 | 0.000307 ± 0.00014 | 0.00519 ± 0.00083 | 6.8e-05 ± 9.6e-06 | 0.000903 ± 0.00017 | 0.00263 ± 0.0008 |
| G29U A42G | 0.00693 ± 0.0016 | 1770 ± 660 | 0.000486 ± 0.00015 | 0.00626 ± 0.0011 | 0.000272 ± 0.00011 | 0.00202 ± 0.00037 |  |
| U47C A52U | 0.00034 ± 5.8e-05 | 3930 ± 1200 |  | 0.000231 ± 4.7e-05 |  | 3.84e-05 ± 1.6e-05 | 0.000145 ± 2.3e-05 |
| G43A C67U | 0.000171 ± 1.4e-05 | 1110 ± 320 |  | 0.000152 ± 9.9e-06 |  | 6.14e-05 ± 9.1e-06 | 0.000189 ± 4.2e-05 |
| G43U A53U | 2.65e-05 ± 2.2e-06 | 2760 ± 880 | < 1e-05 |  |  |  |  |
| C10G A12C | 3.86e-05 ± 1.4e-05 |  |  | 2.24e-05 ± 9.4e-06 |  |  |  |
| U54C C58U | 4.86e-05 ± 8.6e-06 |  |  | 4.34e-05 ± 9.3e-06 |  |  | 4.48e-05 ± 1.5e-05 |
| A39U U47G | 0.00519 ± 0.00052 | 1940 ± 270 | 0.000358 ± 4.8e-05 | 0.00439 ± 0.00057 | 0.000119 ± 1.7e-05 | 0.00132 ± 0.00018 | 0.00285 ± 0.00052 |
| C10A U57C C61U | < 1e-05 |  |  | < 1e-05 |  |  |  |
| U31G G66C | 0.000137 ± 2.5e-05 | 1360 ± 590 |  | 0.000146 ± 3.1e-05 |  | 4.89e-05 ± 1.1e-05 | 7.89e-05 ± 1.3e-05 |
